Assay results published in patent US20090163411A1 (BOLDER BIOTECHNOLOGY, published 2009).
Where a chain is given by its changes, count along the chain named. Names and notes keep the numbering of the source.

B1: Wild type sFlt-1(fl) (receptor)
chain: SKLKDPELSLKGTQHIMQAGQTLHLQCRGEAAHKWSLPEMVSKESERLSITKSACGRNGKQFCSTLTLNTAQANHTGFYSCKYLAVPTSKKKETESAIYIFISDTGRPFVEMYSEIPEIIHMTEGRELVIPCRVTSPNITVTLKKFPLDTLIPDGKRIIWDSRKGFIISNATYKEIGLLTCEATVNGHLYKTNYLTHRQTNTIIDVQISTPRPVKLLRGHTLVLNCTATTPLNTRVQMTWSYPDEKNKRASVRRRIDQSNSHANIFYSVLTIDKMQNKDKGLYTCRVRSGPSFKSVNTSVHIYDKAFITVKHRKQQVLETVAGKRSYRLSMKVKAFPSPEVVWLKDGLPATEKSARYLTRGYSLIIKDVTEEDAGNYTILLSIKQSNVFKNLTATLIVNVKPQIYEKAVSSFPDPALYPLGSRQILTCTAYGIPQPTIKWFWHPCNHNHSEARCDFCSNNEESFILDADSNMGNRIESITQRMAIIEGKNKMASTLVVADSRISGIYICIASNKVGTVGRNISFYITDVPNGFHVNLEKMPTEGEDLKLSCTVNKFLYRDVTWILLRTVNNRTMHYSISKQKMAITKEHSITLNLTIMNVSLQDSGTYACRARNVYTGEEILQKKEITIR
B2: sFlt-1(3) G26C (receptor)
chain: CSKLKDPELSLKGTQHIMQAGQTLHLQCRGEAAHKWSLPEMVSKESERLSITKSACGRNGKQFCSTLTLNTAQANHTGFYSCKYLAVPTSKKKETESAIYIFISDTGRPFVEMYSEIPEIIHMTEGRELVIPCRVTSPNITVTLKKFPLDTLIPDGKRIIWDSRKGFIISNATYKEIGLLTCEATVNGHLYKTNYLTHRQTNTIIDVQISTPRPVKLLRGHTLVLNCTATTPLNTRVQMTWSYPDEKNKRASVRRRIDQSNSHANIFYSVLTIDKMQNKDKGLYTCRVRSGPSFKSVNTSVHIYDKAFITVKH
B3: 20 kDa-Cys-Flt-1(3) G26C (receptor)
chain: B2 chain
modifications: 20 kDa maleimide-PEG on Cys 26
B4: 20 kDa-Cys-Flt-1(3) N164C (receptor)
chain: SKLKDPELSLKGTQHIMQAGQTLHLQCRGEAAHKWSLPEMVSKESERLSITKSACGRNGKQFCSTLTLNTAQANHTGFYSCKYLAVPTSKKKETESAIYIFISDTGRPFVEMYSEIPEIIHMTEGRELVIPCRVTSPCITVTLKKFPLDTLIPDGKRIIWDSRKGFIISNATYKEIGLLTCEATVNGHLYKTNYLTHRQTNTIIDVQISTPRPVKLLRGHTLVLNCTATTPLNTRVQMTWSYPDEKNKRASVRRRIDQSNSHANIFYSVLTIDKMQNKDKGLYTCRVRSGPSFKSVNTSVHIYDKAFITVKH
modifications: 20 kDa maleimide-PEG on Cys 164
B5: 20 kDa-Cys-Flt-1(3) H338C (receptor)
chain: B4 chain with C138N, H312C
modifications: 20 kDa maleimide-PEG on Cys 338
B6: sFlt-1(3) N164C (receptor)
chain: B4 chain
B7: sFlt-1(3) D31C (receptor)
chain: B4 chain with D5C, C138N
B8: sFlt-1(3) N100C (receptor)
chain: B4 chain with N74C, C138N
B9: sFlt-1(3) H338C (receptor)
chain: B4 chain with C138N, H312C
B10: Wild type sFlt-1(3) (receptor)
chain: B4 chain with C138N
B11: sFlt-1(3) N323C (receptor)
chain: B4 chain with C138N, N297C
B12: sFlt-1(3) N196C (receptor)
chain: B4 chain with C138N, N170C
B13: 20 kDa-Cys-Flt-1(3) N100C (receptor)
chain: B4 chain with N74C, C138N
modifications: 20 kDa maleimide-PEG on Cys 100
B14: 20 kDa-Cys-Flt-1(3) N323C (receptor)
chain: B4 chain with C138N, N297C
modifications: 20 kDa maleimide-PEG on Cys 323
B15: 20 kDa-Cys-Flt-1(3) N196C (receptor)
chain: B4 chain with C138N, N170C
modifications: 20 kDa maleimide-PEG on Cys 196
B16: 20 kDa-Cys-Flt-1(3) D31C (receptor)
chain: B4 chain with D5C, C138N
modifications: 20 kDa maleimide-PEG on Cys 31

Molecular target: Recombinant Human Vascular Endothelial Growth Factor (rhVEGF) (human, UniProt P15692-4 27-191, limits assumed)
Sequence (P15692 other isoform, or with tags, fused parts or gaps limits assumed): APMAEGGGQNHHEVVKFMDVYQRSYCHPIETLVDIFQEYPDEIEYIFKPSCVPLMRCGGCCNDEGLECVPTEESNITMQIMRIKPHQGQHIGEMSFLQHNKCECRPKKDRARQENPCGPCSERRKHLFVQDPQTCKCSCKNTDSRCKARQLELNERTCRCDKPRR
Experiment: cell-based or functional assay

| Binder | Ave Ec50's (ng/ml); inhibition of VEGF-stimulated HUVEC proliferation, BrdU Cell Proliferation assay |
| --- | --- |
| B1 | 76 ng/mL |
| B2 | 43 ng/mL |
| B3 | 54 ng/mL |
| B4 | 75 ng/mL |
| B5 | 19 ng/mL |
| B6 | 103 ng/mL |
| B7 | 60 ng/mL |
| B8 | 53 ng/mL |
| B9 | 55 ng/mL |
| B10 | 36 ng/mL |
| B11 | 32 ng/mL |
| B12 | 88 ng/mL |
| B13 | 66 ng/mL |
| B14 | 40 ng/mL |
| B15 | 59 ng/mL |
| B16 | 80 ng/mL |
